As usually defined, the Kd is the equilibrium constant for the complex coming apart.

This note sets out measurements from patent US20040259112A1.

In assay [1] the target is human vimentin (full length) (human) (UniProt P08670). In words: quantitative FACS (quantum simply cellular beads) on MCF-7/AR cells at saturating antibody (50 µg).
The target is the same in assay [2]. In words: quantitative FACS (quantum simply cellular beads) on HL60/AR cells at saturating antibody (40 µg).
The target is the same in assay [3]. Nature of the assay: quantitative FACS (quantum simply cellular beads) on HL60 cells at saturating antibody (40 µg).
Assay [4] shares this target. Nature of the assay: quantitative FACS (quantum simply cellular beads) on MCF-7 cells at saturating antibody (50 µg).
Assay [5] shares this target. In words: FACS, indirect immunofluorescence on HL60 cells with 2.5 µg to 40 µg antibody; isotype control subtracted. A general note: A flow cytometer gives signals particle by particle.
Assay [6] shares this target. In words: Scatchard analysis, intact cell radioimmunoassay with 125I-labeled antibody on MDA/mito cells; average of 5 determinations.
The target is the same in assay [7]. Nature of the assay: Scatchard analysis, intact cell radioimmunoassay with 125I-labeled antibody on MDA cells.
The target is the same in assay [8]. In words: cell-based or functional assay.

Chain of human vimentin (full length) (human) (P08670 other isoform, or with tags, fused parts or gaps limits assumed): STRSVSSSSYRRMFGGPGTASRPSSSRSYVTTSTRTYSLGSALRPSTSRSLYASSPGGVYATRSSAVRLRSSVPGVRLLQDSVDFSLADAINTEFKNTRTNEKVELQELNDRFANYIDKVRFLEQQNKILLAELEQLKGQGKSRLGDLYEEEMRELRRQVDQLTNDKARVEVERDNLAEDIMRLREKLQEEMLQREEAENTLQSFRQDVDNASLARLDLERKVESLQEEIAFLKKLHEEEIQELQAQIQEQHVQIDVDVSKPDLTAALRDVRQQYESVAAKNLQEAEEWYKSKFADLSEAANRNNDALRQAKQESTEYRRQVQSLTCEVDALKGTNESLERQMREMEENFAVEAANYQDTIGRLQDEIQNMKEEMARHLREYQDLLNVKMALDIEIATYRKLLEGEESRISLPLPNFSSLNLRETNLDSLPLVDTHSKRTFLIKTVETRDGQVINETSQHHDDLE

With “mouse monoclonal anti-vimentin antibody (clone V9, NeoMarker MS-129-P)”, in assay [1], the antibody molecules bound per cell (molecules of vimentin per cell) (molecules per cell) came out at 22000. Also, the antibody molecules bound per cell (molecules of vimentin per cell) (molecules per cell) in assay [2] worked out at 5050. In addition, the antibody molecules bound per cell (molecules of vimentin per cell) (molecules per cell) in assay [3] turned out to be 186. In assay [4], this substance returned an antibody molecules bound per cell (molecules of vimentin per cell) (molecules per cell) of 14600. Moreover, in assay [5], the fluorescence intensity (RFI) fell in the range of 0.2 to 0.9 RFI. For the same substance, in assay [6], the Kd stood at 5.7 nM. In assay [7], this substance yielded a Kd of 9.3 nM. In assay [8], the % internalization of 125I-labeled antibody, MCF-7/AR cells in suspension (difference between 4 and 37° C.) stood at 38.2%; the increase in cytotoxicity of 125I-labeled antibody on HL60/AR against HL60 (MTT based assay) worked out at 10%; the percent internalization of vimentin, adherent MCF-7/AR cells (difference between 4 and 37° C.) was found to be 11.3%; the percent internalization of vimentin, adherent MDA cells (difference between 4 and 37° C.) was found to be 25.3%. In assay [8], this substance displayed a percent internalization of vimentin, adherent MDA/AR cells (difference between 4 and 37° C.) of 24.8%; a percent internalization of vimentin, adherent MDA/mito cells (difference between 4 and 37° C.) of 8.9%.
